Laboratory results reported in article PMC8413711, “Structure-based analyses of neutralization antibodies interacting with naturally occurring SARS-CoV-2 RBD variants” (Cell Research, 2021).

B1: BD-503 (antibody, V domains shown)
VH: EVQLVESGGGLIQPGGSLRLSCAASGLIVSSNYMSWVRQAPGKGLEWVSVLYAGGSTDYAGSVKGRFTISRDNSKNTLYLQMNSLRAEDTAVYYCARDAAVYGIDVWGQGTTVTVSS
VL: not shown
notes: also called BD-503 NAb
B2: BD-515 (antibody, V domains shown)
VH: EVQLVESGGGLVQPGGSLRLSCAASEFIVSRNYMSWVRQAPGKGLEWVSVIYSGGSTFYADSVKGRFTISRDNSKNTLYLQMNSLRAEDTGVYYCARDRGLVSDYWGQGTLVTVSS
VL: DIQMTQSPSSLSASVGDRVTITCQASQDINKYLNWYQQKPGKAPKLLIFDASHLETGVPSRFSASGSGTDFTFTISSLQPEDIATYYCHQYDNLPRTFGQGTRLEIK
B3: BD-623 (antibody, V domains shown)
VH: EVQLVESGGGLVQPGGSLRLSCAASGFTVSSNYMSWVRQAPGKGLEWVSIIYSGGSTYYADSVKGRFTISRDNSKNTLYLQMNSLRAEDTAVYYCARDYAGRVWGQGTLVTVSS
VL: QSALTQPASVSGSPGQSITISCTGTSSDVGSYNLVSWYQQRPGKAPKLILYEVTKRPSGVSNRFSGSKSGNTASLAISGLQAEDEADYYCCSYAGSSTWVFGGGTKLTVL
B4: BD-604 (antibody, V domains shown)
VH: EVQLVESGGGLIQPGGSLRLSCAASGIIVSSNYMTWVRQAPGKGLEWVSVIYSGGSTFYADSVKGRFTISRDNSKNTLYLQMSSLRAEDTAVYYCARDLGPYGMDVWGQGTTVTVSS
VL: DIQLTQSPSFLSASVGDRVTITCRASQGISSDLAWYQQKPGKAPNLLIYAASTLQSGVPSRFSGSGSGTEFTLTISSLQPEDFATYYCQQLNSDLYTFGQGTKLEIK

The binders below were run against T1, RBD-501Y.V2 (SARS-CoV-2, B.1.351 (501Y.V2) lineage …, K417N | E484K | N501Y) (assay: SPR). Settings: both partners purified.
T1 construct: also called K417N/E484K/N501Y ternary mutation; B.1.351 lineage RBD

Binder	fold reduction of binding affinity against RBD [fold]
B1	> 3
B2	> 3
B3	> 3
B4	60
